Here are results for three molecules from patent US20180362645A1 (Amgen, published 2018).

Test [1] deals with T1, VPAC2.
T1 sequence (P41587 whole entry, species assumed, looked up): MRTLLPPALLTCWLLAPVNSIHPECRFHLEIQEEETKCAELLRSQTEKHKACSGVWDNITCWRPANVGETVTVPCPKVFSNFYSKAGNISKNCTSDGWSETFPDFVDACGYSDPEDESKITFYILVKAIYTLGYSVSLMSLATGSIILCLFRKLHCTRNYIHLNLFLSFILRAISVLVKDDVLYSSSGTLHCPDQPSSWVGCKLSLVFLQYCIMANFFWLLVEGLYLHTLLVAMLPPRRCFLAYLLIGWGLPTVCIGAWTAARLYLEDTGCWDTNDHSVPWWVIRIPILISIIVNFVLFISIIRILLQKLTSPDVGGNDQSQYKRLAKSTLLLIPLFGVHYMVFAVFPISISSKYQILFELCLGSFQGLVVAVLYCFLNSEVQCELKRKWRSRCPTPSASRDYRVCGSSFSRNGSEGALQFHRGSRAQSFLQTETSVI
The test is described as follows: cell-based or functional assay.

The target in test [2] is T2, human pituitary adenylate cyclase-activating polypeptide type I receptor (human, UniProt P41586 21-468).
T2 construct: whole, on cells; On SH-SY5Y or recombinant CHO cells (cAMP assay), as membranes of hPAC-1 AequoScreen CHO cells (radioligand assay) and on CHOK1/huPac1 whole cells (KinExA); also called human PAC1; hPAC1
T2 sequence (looked up): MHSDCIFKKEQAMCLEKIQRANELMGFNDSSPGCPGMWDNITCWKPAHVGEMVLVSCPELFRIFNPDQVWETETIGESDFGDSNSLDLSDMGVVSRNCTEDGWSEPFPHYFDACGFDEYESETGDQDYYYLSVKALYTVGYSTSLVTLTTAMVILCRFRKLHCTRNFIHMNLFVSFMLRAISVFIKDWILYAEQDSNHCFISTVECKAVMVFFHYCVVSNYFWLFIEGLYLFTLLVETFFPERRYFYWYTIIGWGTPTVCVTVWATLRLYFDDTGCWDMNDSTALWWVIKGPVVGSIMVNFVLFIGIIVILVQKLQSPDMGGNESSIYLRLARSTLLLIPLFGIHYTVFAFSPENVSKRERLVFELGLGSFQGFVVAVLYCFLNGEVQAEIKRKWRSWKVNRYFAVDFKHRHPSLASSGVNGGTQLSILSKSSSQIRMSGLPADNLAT
The experiment in a line: radioligand competition, hPAC1 CHO membranes; competitor 125I-14B.
Protocol: (§1) The plates were incubated at room temperature for 2 hours with shaking at 60 rpm, and then the contents of each well were filtered over 0.5% polyethyleneimine (PEI)-treated (for at least two hours) GF/C 96-well filter plates. The GF/C filter plates were washed five times with ice-cold 50 mM Tris, pH 7.5 and dried in an oven at 55° C. for 1 hour. The bottoms of the GF/C plates were then sealed. 40 μl Microscint™ 20 was added to each well, the tops of the GF/C plates were sealed with TopSeal™-A (a press-on adhesive sealing film), and the GF/C plates were counted with TopCount NXT (Packard). The data were analyzed using Prizm (GraphPad Software Inc.)

Test [3] addresses T2, human pituitary adenylate …. The experiment in a line: radioligand competition, hPAC1 CHO membranes; competitor 125I-39A.
Protocol: as §1
Test [4] has the same target. The test is described as follows: radioligand competition, hPAC1 CHO membranes; competitor 125I-29A.
Protocol: as §1
The target is the same in test [5]. The experiment in a line: radioligand competition, hPAC1 CHO membranes; competitor 125I-28A.
Protocol: as §1
For test [6] the target is unchanged. The experiment in a line: radioligand competition, hPAC1 CHO membranes; competitor 125I-39B.
Protocol: as §1
Test [7] has the same target. The experiment in a line: radioligand competition, hPAC1 CHO membranes; competitor 125I-29B.
Protocol: as §1
The target is the same in test [8]. The test is described as follows: radioligand competition, hPAC1 CHO membranes; competitor 125I-26B.
Protocol: as §1
For test [9] the target is unchanged. The experiment in a line: radioligand competition, hPAC1 CHO membranes; competitor 125I-01B; 125I-01B as tracer.
Protocol: as §1
For test [10] the target is unchanged. The test is described as follows: radioligand competition, hPAC1 CHO membranes; competitor 125I-14A.
Protocol: as §1
For test [11] the target is unchanged. The test is described as follows: radioligand competition, hPAC1 CHO membranes; competitor 125I-26A.
Protocol: as §1
Test [12] shares this target. The experiment in a line: KinExA, CHOK1/huPac1 whole cells.
Protocol: Binding of anti-Pac1 antibody with CHOK1/huPac1 cells were tested on KinExA. […] Samples containing anti-Pac1 antibody and whole cells were incubated with rotation at room temperature for 4 hours before 5-minute 220-g centrifugation at 4° C. to separate the whole cells and anti-Pac1 antibody-cell complexes from unbound anti-Pac1 antibody. The supernatants containing free anti-Pac1 antibody were filtered through 0.22 μm filter before loading to the goat-anti-huFc-coated beads on KinExA. […] The binding signal is proportional to the concentration of free anti-Pac1 antibody in solution at each cell density. Equilibrium dissociation constant (KD) was estimated by n-curve analysis in KinExA™ Pro software (Sapidyne Instruments, Inc., Boise, Id.).
Test [13] deals with T3, rat PAC1 (rat, UniProt P32215 20-523).
T3 sequence (looked up): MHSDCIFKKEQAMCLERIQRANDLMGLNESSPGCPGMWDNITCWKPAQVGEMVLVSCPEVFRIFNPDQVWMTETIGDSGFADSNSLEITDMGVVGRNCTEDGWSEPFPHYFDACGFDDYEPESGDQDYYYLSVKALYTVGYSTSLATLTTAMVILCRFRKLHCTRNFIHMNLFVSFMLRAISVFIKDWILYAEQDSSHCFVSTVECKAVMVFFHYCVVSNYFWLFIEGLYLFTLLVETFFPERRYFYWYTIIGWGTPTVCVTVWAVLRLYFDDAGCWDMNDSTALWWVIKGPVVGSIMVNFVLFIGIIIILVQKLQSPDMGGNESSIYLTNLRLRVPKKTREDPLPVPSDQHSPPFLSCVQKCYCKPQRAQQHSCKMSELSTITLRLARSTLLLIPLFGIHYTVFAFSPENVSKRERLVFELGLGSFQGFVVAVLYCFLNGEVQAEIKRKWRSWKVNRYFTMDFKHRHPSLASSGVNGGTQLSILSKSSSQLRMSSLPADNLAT
The test is described as follows: cell-based or functional assay.

Test [14] deals with T4, human VPAC2 (human, UniProt P41587 24-438).
T4 sequence (looked up): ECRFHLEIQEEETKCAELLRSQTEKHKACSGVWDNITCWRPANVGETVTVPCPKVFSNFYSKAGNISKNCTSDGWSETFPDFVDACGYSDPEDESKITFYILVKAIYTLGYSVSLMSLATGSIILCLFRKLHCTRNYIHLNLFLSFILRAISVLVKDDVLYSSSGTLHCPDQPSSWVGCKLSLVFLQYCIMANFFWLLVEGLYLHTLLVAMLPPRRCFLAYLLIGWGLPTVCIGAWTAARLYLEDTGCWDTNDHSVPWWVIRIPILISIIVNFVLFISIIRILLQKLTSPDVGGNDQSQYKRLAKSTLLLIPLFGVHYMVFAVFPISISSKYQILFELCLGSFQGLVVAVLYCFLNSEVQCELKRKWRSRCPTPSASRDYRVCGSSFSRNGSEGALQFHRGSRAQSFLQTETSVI
The experiment in a line: cell-based or functional assay.

The target of test [15] is T5, human VPAC1 (human, UniProt P32241 31-457).
T5 sequence (looked up): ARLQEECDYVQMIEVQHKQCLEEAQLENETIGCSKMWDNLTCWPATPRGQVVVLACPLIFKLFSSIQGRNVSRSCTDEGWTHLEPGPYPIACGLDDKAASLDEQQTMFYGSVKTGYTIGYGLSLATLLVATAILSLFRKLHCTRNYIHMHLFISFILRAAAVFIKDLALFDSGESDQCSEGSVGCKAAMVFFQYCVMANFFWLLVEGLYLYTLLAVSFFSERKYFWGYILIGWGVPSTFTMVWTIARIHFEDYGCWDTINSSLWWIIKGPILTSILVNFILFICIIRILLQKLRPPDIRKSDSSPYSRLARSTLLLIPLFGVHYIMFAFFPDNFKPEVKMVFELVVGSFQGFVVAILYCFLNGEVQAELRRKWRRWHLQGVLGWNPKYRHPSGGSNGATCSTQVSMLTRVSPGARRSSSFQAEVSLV
The test is described as follows: cell-based or functional assay.

For test [16], the target named is cyno PAC1 (cynomolgus). The test is described as follows: cell-based or functional assay.
In test [17] the target is T2, human pituitary adenylate …. The test is described as follows: cell-based or functional assay.
Test [18] has the same target. The test is described as follows: radioligand competition, hPAC1 CHO membranes; competitor 125I-01B.
Protocol: as §1

Where no end group is shown, it is not given here.

Take HSDGIFTDSYSRYRKQMAVKKYLAAVLGKRYKQRVKNK (ligand, UniProt P18509 132-169, looked up, ends and bridges not checked) [PACAP38]: in test [1], the “VPAC2 EC50 (agonist activity)” value is 0.06 nM.
On to FTDSYSRYRKQMAVKKYLAAVLGKRYKQRVKNK (peptide, UniProt P18509 137-169, looked up, domain: PACAP 6-38) [PACAP 6-38], for which the inhibition constant Ki was 7.74 nM in test [2]; 2.78 nM in test [3]; 4.05 nM in test [4]; 2.06 nM in test [5]; 4.91 nM in test [6]; 2.39 nM in test [7]. The inhibitory constant (Ki) in [8] amounted to 6.26 nM; in test [9] it was 4.98 nM; in test [10], 4.08 nM; in test [11], 2.51 nM.

B1: 29B (antibody, human IgG1, kappa, N297G)
heavy: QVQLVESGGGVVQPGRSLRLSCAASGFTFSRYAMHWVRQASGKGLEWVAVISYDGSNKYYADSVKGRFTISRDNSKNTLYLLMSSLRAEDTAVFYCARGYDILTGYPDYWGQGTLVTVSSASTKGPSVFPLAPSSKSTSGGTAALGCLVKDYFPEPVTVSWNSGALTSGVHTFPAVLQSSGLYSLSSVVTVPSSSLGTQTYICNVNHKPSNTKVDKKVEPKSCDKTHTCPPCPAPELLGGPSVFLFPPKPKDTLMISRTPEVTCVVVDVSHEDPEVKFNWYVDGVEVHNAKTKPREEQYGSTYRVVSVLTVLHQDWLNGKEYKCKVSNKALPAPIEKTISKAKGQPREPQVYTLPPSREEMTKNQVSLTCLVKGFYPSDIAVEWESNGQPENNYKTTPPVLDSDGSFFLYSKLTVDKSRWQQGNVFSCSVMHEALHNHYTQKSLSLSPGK
light: DIQLTQSPSFLSASVGDRVTITCRASQSIGRSLHWYQQKPGKAPKLLFKYASQSLSGVPSRFSGSGSGTEFTLTISSLQPEDFATYYCHQSSRLPFTFGPGTKVDIKRTVAAPSVFIFPPSDEQLKSGTASVVCLLNNFYPREAKVQWKVDNALQSGNSQESVTEQDSKDSTYSLSSTLTLSKADYEKHKVYACEVTHQGLSSPVTKSFNRGEC
notes: "B" suffix: aglycosylated IgG1 variant (N297G); also called LC-11 and HC-40
In the case of B1, binding in [12] was put at a Kd of 0.015 nM. In addition, the Ki in [2] stood at 0.08 nM; in test [6], 0.05 nM; in test [7], 0.08 nM; in test [8], 0.07 nM; in test [18], 0.14 nM. For the same molecule, the “rat PAC1 IC50 (cAMP assay)” value in test [13] was 50.7 nM. In addition, the “hVPAC2 IC50 (cAMP assay)” value in [14] is above 10000 nM. Also, the “hVPAC1 IC50 (cAMP assay)” value in test [15] was above 10000 nM. Also, the “cyno PAC1 IC50 (cAMP assay)” value in [16] is 0.5 nM. Further, the “hPAC1 IC50 (cAMP assay)” value in test [17] came to 0.9 nM.
